# US12065466B2, “Methods and compositions for protein sequencing” (Quantum-Si Incorporated, priority 2020, dated 2024)
# Where two headings read alike, the source gives them in different places.
# Columns and labels:
# [1] = tested on: amino acid at a terminal position of a polypeptide; details: Table 2; amino acid identity at a terminal position (phosphotyrosine also internal); inferred from literature and/or demonstrated by the inventors; cited from earlier work
# [2] = tested on: amino acid at a terminal position of a polypeptide; experiment: Amino acid binding preference of recognition proteins (Tables 1 and 2); details: Table 1, ClpS proteins; amino acid identity at a terminal position of a polypeptide; inferred from literature and/or demonstrated by the inventors
# Description: It should be appreciated that these sequences and other examples described herein are meant to be non-limiting, and recognition molecules in accordance with the application can include any homologs, variants thereof, or fragments thereof minimally containing domains or subdomains responsible for peptide recognition.
# [3] = tested on: FA, LF, WA, and YA peptides; experiment: Binder-on-chip single-molecule assay (PS218 and wild-type atClpS1); format: binding; parameters: unit not given here
# Method: A variant of atClpS1 was created with active-site substitutions rationally designed to achieve longer pulse widths which can be favorable in single-molecule sequencing reactions. The designed variant (PS218) contains the following mutations relative to wild-type atClpS1: M51F, E52Q, M73T, T70 W. Binder-on-chip experiments were performed for PS218 with FA, LF, WA, and YA peptides to evaluate recognition by signal pulse detection in single-molecule assays. As shown by the results in Table 7, the substitutions relative to the wild-type protein result in longer pulse widths with each peptide tested.
# [4] = tested on: peptides with different N-terminal amino acids, penultimate alanine; experiment: Biolayer interferometry of multivalent amino acid binders; format: binding
# Method: The amino acid binding profile of each Bis-atClpS2-V1 binder (PS609, PS610, and PS611) was evaluated by biolayer interferometry as described above. The monovalent atClpS2-V1 was run as a control. Measurements with each binder were carried out for the amino acids F, Y, and W, along with I, L, M, and V as negative controls. All peptides contained a penultimate alanine (A). Response curves for the tandem binders PS609, PS610, and PS611 are shown in FIGS. 35B, 35C, and 35D, respectively.
# The multivalent binder PS612 is a polypeptide that contains tandem copies of two different ClpS protein monomers (atClpS2-V1 and PS372). The amino acid binding profile of PS612 was evaluated by biolayer interferometry as described above. The monovalent binders atClpS2-V1 and PS372 were separately run as controls.
# The multivalent binder PS614 is a polypeptide that contains two copies of the ClpS binder PS372 oriented in tandem. The amino acid binding profile of PS614 was evaluated by biolayer interferometry as described above.
# The multivalent binders PS637, PS638, and PS639 are polypeptides that each contain two copies of the ClpS binder PS557 oriented in tandem and separated by Linker 1, Linker 2, and Linker 3, respectively. The amino acid binding profiles of each binder was evaluated by biolayer interferometry as described above.
# [5] = tested on: immobilized peptides containing N-terminal R, K or H; experiment: Biolayer interferometry of UBR-box domain homologs; format: binding; details: for binding to RA/KA/HA peptides (single-point screening): 30° C., XAKLDEESILKQK; for binding range for RX dipeptides / dissociation rates with R dipeptides: 14 peptides RXGGGDDDFFK (SEQ ID NO: 241); for binding affinity to N-terminal R with different penultimate amino acids: 14 polypeptides containing N-terminal R
# Method: The amino acid binding properties of UBR-box domain homologs were evaluated by biolayer interferometry. Peptides containing an N-terminal arginine (R), followed by different amino acids in the penultimate position, were immobilized on a biolayer interferometry sensor surface, allowed to bind to UBR-box protein, and incubated in buffer to allow the UBR-box molecules to dissociate. […] FIG. 32C is a heatmap showing results measured for 24 UBR-box homologs against 14 polypeptides containing N-terminal R followed by different amino acids in the penultimate position.
# UBR proteins bind to the basic N-terminal residues R, K, and H as part of the conserved N-end rule pathway. To identify high-affinity UBR proteins with properties favorable for use in sequencing, a diverse panel of uncharacterized UBR-box domain homologs from 44 species (PS501-PS544) was designed. UBR-box domain homologs were expressed, purified, and evaluated for binding to N-terminal amino acids by biolayer interferometry. Measurements were carried out at 30° C. for each protein for R, K and H binding. The amino-acid binding profile of each new homolog was first evaluated by biolayer interferometry using a single-point screening assay. All peptides in this screen contained a penultimate alanine (A) and consisted of the sequence XAKLDEESILKQK (SEQ ID NO: 238), where X is R, K, or H.
# To evaluate the effect of penultimate amino acids on arginine binding, UBR box-domain homologs were evaluated for binding to 14 different peptides with N-terminal RX (peptide sequence: RXGGGDDDFFK (SEQ ID NO: 241)). The selected RX dipeptides are the 14 most frequently found in the human proteome.
molecule,measurement,setting,value
"PS626: UBR-box domain homolog, SEQ ID NO: 186 (protein, listed as Zygosaccharomyces parabailii) MYHVYKHSGRNCGRKFKVGEPIYRCHECGYDETCVLCIHCFNPKDHDSHHVYIDICSEFSTGICDCGDTEAFVNPLHCKAEED",Binding Pref.,[1],"K, R, H"
"PS218: designed variant of atClpS1 with active-site substitutions, SEQ ID NO: 98 (protein) MIAEPICMQGEGDGEDGGTNRGTSVITRVKPKTKRPNLYRVLLLNDDYTPFQFVIHILERFFQKDREAAWRITLHVHQHGVGECGVFTYEVAETKVSQVMDFARQHQHPLQCVMEKK",Binding Pref.,[2],"F, W, Y, L"
same,Median PW,[3]; FA peptide,0.78
same,mean pulse width,[3]; FA peptide,1.28
same,Median PW,[3]; LF peptide,0.32
same,mean pulse width,[3]; LF peptide,0.56
same,Median PW,[3]; WA peptide,0.58
same,mean pulse width,[3]; WA peptide,1.00
same,Median PW,[3]; YA peptide,1.06
same,mean pulse width,[3]; YA peptide,1.64
"PS628: UBR-box domain homolog, SEQ ID NO: 188 (protein, Candida albicans) MSHRAYHKNSPCGRIFRKGEPIHRCLTCGFDDTCALCSHCFQPEYHEGHKVHIGICQRENGGVCDCGDPEAWTQELFCPYAVD",Binding Pref.,[1],"K, R, H"
PS612: polypeptide with tandem copies of two different ClpS monomers (atClpS2-V1 and PS372) (protein) MSDSPVDLKPKPKVKPKLERPKLYKVMLLNDDYTPMSFVTVVLKAVFRMSEDTGRRVMMTAHRFGSAVVVVCERDIAETKAKEATDLGKEAGFPLMFTTEPEEGSAGSAAGSGEFMAFPARGKTAPKNEVRRQPPYNVILLNDDDHTYRYVIEMLQKIFGFPPEKGFQIAEEVDRTGRVILLTTSKEHAELKQDQVHSYGPDPYLGRPCSGSMTCVIEPAVGGSHHHHHHHHHHGGGSGGGSGGGSGLNDFFEAQKIEWHEGGGSGGGSGGGSGLNDFFEAQKIEWHE,N-terminal amino acids bound (biolayer interferometry),[4],"N-terminal F, W, Y, I, L, and V"
"PS538: UBR-box domain homolog, SEQ ID NO: 166 (protein, listed as Saccharomyces cerevisiae) MGDVHKHTGRNCGRKFKIGEPLYRCHECGCDDTCVLCIHCFNPKDHVNHHVCTDICTEFTSGICDCGDEEAWNSPLHCKAEEQ",binding to RA/KA/HA peptides (single-point screening),[5],favorable binding trajectories to RA and KA peptides with notably high response for RA peptide
same,Binding Pref.,[1],"K, R, H"
"PS625: UBR-box domain homolog, SEQ ID NO: 185 (protein, listed as Saccharomyces eubayanus) MGDVHKHTGRNCGRKFKIGEPLYRCHECGCDDTCVLCIHCFNPKDHINHHVCTDICSEFTSGICDCGDEEAWNSSLHCKAEEQ",Binding Pref.,[1],"K, R, H"
"PS629: UBR-box domain homolog, SEQ ID NO: 189 (protein, listed as Pichia pastoris) MCPNYKHHGRPCARQFKQGEPIYRCYECGFDETCVMCMHCFNREQHRDHEVSISIASSSNDGICDCGDPQAWNIELHCQSELD",Binding Pref.,[1],"K, R, H"
"PS535: UBR-box domain homolog, SEQ ID NO: 163 (protein, listed as Mus musculus) MLCGRVFKVGEPTYSCRDCAVDPTCVLCMECFLGSIHRDHRYRMTTSGGGGFCDCGDTEAWKEGPYCQKHKL",binding range for RX dipeptides,[5],extensive binding range for RX dipeptides
same,dissociation rates with R dipeptides,[5],faster dissociation rates
same,binding affinity to N-terminal R with different penultimate amino acids,[5],high binding affinity to R in the presence of a wide range of penultimate amino acids
same,binding to RA/KA/HA peptides (single-point screening),[5],favorable binding trajectories to RA and KA peptides with notably high response for RA peptide
same,Binding Pref.,[1],"K, R, H"
"PS627: UBR-box domain homolog, SEQ ID NO: 187 (protein, listed as Zygosaccharomyces mellis) MPKYHQHSGRYCGRKFKVGEPIYRCHECGFDETCVICIHCFNAKDHETHHVSVSICSEYSTGICDCGDTEAFVNPLHCRAEEV",Binding Pref.,[1],"K, R, H"
"PS505: UBR-box domain homolog, SEQ ID NO: 133 (protein, listed as Brachionus plicatilis) MVCGRVFKSGEPSYFCRECGTDPTCVLCSICFRHSKHRYHKYVMMTSGGGGYCDCGDPEAWKSDPCCELHMP",binding affinity to N-terminal R with different penultimate amino acids,[5],high binding affinity to R in the presence of a wide range of penultimate amino acids
same,Binding Pref.,[1],"K, R, H"
"PS622: UBR-box domain homolog, SEQ ID NO: 182 (protein, listed as Kluyveromyces dobzhanskii) MHSRFNHAGRICASKFKVGEPIYRCKECSFDDTCVICVNCFNPKDHVGHHVYTSICSEFNNGICDCGDTEAWNHDMHCKADEN",Binding Pref.,[1],"K, R, H"
"PS624: UBR-box domain homolog, SEQ ID NO: 184 (protein, listed as Eremothecium sinecaudum) MPKNHNHKGRNCGRSFQPGEPLYRCQECAYDDTCVLCIRCFNPLDHVNHHVSTHICSEFNDGICDCGDVEAWNVELNCKAEED",Binding Pref.,[1],"K, R, H"
"H. sapiens Fyn SH2 domain: SEQ ID NO: 116 (protein, listed as Homo sapiens) MGAMDSIQAEEWYFGKLGRKDAERQLLSFGNPRGTFLIRESETTKGAYSLSIRDWDDMKGDHVKHYKIRKLDNGGYYITTRAQFETLQQLVQHYSERAAGLSSRLVVPSHK",Binding Pref.,[1],phospho-Y
"PS623: UBR-box domain homolog, SEQ ID NO: 183 (protein, listed as Kazachstania naganishii) MSKQFRHKGRNCGRKFRLGEPLYRCQECGYDDTCVLCINCFNPKDHEGHHIYTDICNDFTSGICDCGDEEAWLSPLHCKAEED",Binding Pref.,[1],"K, R, H"
"PS522: UBR-box domain homolog, SEQ ID NO: 150 (protein, listed as Vombatus ursinus) MLCGKVFKSGETTYSCRDCAIDPTCVLCMNCFQSSVHKNHRYKMHTSTGGGFCDCGDTEAWKTGPFCTIHEP",binding range for RX dipeptides,[5],extensive binding range for RX dipeptides
same,dissociation rates with R dipeptides,[5],faster dissociation rates
same,binding affinity to N-terminal R with different penultimate amino acids,[5],high binding affinity to R in the presence of a wide range of penultimate amino acids
same,binding to RA/KA/HA peptides (single-point screening),[5],favorable binding trajectories to RA and KA peptides with notably high response for RA peptide
same,Binding Pref.,[1],"K, R, H"
"Escherichia coli leucyl/phenylalanyl-tRNA-protein transferase: amino acid recognition protein, SEQ ID NO: 111 (protein, listed as Escherichia coli) MRLVQLSRHSIAFPSPEGALREPNGLLALGGDLSPARLLMAYQRGIFPWFSPGDPILWWSPDPRAVLWPESLHISRSMKRFHKRSPYRVTMNYAFGQVIEGCASDREEGTWITRGVVEAYHRLHELGHAHSIEVWREDELVGGMYGVAQGTLFCGESMFSRMENASKTALLVFCEEFIGHGGKLIDCQVLNDHTASLGACEIPRRDYLNYLNQMRLGRLPNNFWVPRCLFSPQELE",Binding Pref.,[1],"K, R"
